Results on one molecule are retold here after patent US20230035748A1.

Holding throughout (assay): pull-down from MDA-MB-231 cell lysate with CT20p-biotin and streptavidin-agarose beads, excised gel band, mass spectrometry
The target of one test is Huntingtin (human) (UniProt P42858).
In test [1] the target is Coatomer subunit gamma-1 (human) (UniProt Q9Y678).
For test [2], the target named is T-complex protein 1 subunit zeta (human) (UniProt P40227).
The target of test [3] is Signal transducer and activator of transcription 1-alpha/beta (human) (UniProt P42224).
Test [4] has as its target T-complex protein 1 subunit eta (human) (UniProt Q99832).
Sequence of UniProt Q99832 (Q99832 whole entry, one chain of several): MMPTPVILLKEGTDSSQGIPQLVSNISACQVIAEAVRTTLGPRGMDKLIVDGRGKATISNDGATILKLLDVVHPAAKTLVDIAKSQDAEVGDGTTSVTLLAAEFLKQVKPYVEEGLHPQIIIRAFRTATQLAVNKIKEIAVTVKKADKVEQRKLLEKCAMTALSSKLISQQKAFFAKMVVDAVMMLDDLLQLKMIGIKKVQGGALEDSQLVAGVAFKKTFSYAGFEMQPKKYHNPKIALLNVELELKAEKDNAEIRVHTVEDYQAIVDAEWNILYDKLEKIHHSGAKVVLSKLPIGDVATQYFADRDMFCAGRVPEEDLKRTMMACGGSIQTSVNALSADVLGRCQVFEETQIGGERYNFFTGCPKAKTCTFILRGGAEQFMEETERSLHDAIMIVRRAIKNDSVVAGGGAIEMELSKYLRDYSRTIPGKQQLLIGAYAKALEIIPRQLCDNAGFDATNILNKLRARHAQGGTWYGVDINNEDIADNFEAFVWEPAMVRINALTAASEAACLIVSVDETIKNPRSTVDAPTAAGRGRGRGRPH
Test [5] addresses T-complex protein 1 subunit gamma (human) (UniProt P49368).
The target of test [6] is T-complex protein 1 subunit delta (human) (UniProt P50991).
Sequence of UniProt P50991 (P50991 2-539, stated change not applied, one chain of several): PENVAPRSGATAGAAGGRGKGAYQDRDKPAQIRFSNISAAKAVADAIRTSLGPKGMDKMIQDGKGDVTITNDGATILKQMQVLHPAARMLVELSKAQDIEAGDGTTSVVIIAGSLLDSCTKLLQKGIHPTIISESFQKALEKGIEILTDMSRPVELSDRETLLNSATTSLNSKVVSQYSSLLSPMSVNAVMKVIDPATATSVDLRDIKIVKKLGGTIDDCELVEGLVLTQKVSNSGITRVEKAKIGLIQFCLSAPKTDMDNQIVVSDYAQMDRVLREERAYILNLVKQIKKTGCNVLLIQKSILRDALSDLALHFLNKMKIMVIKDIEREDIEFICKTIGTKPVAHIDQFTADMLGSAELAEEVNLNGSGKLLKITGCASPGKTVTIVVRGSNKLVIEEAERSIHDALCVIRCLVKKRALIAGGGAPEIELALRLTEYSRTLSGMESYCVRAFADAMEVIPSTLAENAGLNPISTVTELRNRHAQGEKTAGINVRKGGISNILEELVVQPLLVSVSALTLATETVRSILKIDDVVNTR
In test [7] the target is T-complex protein 1 subunit epsilon (human) (UniProt P48643).
Sequence of UniProt P48643 (P48643 2-541 limits assumed, one chain of several): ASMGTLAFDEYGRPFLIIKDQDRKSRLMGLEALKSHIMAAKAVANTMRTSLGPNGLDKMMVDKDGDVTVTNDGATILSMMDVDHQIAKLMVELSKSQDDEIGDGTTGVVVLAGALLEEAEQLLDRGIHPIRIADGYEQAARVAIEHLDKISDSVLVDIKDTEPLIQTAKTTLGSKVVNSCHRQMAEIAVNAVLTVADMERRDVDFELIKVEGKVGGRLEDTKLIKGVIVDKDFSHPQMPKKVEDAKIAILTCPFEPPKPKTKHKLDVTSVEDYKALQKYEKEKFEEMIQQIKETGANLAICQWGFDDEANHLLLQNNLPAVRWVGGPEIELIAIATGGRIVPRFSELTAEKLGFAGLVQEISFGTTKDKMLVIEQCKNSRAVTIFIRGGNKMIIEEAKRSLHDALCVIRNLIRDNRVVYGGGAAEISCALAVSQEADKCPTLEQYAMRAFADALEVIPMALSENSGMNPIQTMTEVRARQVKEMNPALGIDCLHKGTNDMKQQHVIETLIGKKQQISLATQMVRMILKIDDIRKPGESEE
Test [8] deals with Coatomer subunit beta (human) (UniProt P35606).
Sequence of UniProt P35606 (P35606 2-906 limits assumed): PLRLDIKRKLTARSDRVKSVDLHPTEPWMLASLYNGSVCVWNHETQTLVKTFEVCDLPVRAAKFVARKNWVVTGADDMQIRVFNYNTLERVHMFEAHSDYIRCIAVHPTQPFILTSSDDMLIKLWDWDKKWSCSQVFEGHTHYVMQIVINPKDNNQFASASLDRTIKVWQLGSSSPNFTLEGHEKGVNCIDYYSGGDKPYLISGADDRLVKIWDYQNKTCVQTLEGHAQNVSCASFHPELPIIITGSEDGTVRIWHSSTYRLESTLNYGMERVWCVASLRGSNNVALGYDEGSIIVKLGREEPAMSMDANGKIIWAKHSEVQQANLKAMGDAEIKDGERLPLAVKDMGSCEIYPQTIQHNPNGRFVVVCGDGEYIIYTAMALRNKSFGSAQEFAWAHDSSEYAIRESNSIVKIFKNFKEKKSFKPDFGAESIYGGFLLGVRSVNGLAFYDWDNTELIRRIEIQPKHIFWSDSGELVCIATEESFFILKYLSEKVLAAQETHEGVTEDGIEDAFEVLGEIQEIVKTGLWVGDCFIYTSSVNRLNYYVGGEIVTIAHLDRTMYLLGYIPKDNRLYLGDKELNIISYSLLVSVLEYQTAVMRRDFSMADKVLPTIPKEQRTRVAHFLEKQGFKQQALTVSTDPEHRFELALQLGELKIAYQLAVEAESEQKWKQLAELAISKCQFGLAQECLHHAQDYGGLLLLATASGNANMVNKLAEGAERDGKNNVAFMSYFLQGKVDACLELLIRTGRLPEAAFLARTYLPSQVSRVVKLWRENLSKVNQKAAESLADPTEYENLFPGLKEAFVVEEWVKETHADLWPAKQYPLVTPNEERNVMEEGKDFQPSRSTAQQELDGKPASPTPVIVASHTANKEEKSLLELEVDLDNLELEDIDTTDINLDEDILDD
Test [9] deals with T-complex protein 1 subunit alpha (human) (UniProt P17987).
For test [10], the target named is Hsp90 co-chaperone Cdc37 (human) (UniProt Q16543).
Sequence of UniProt Q16543 (Q16543 whole entry): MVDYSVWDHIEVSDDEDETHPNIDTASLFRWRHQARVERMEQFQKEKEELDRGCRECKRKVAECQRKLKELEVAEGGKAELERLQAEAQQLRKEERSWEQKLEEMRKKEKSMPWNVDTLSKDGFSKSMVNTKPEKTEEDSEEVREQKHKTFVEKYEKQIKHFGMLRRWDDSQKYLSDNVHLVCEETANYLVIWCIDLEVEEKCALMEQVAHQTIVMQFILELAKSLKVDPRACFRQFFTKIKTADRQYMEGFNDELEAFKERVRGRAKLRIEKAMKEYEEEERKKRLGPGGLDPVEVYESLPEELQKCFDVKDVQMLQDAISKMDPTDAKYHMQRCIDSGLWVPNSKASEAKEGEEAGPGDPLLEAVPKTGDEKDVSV
The target of test [11] is Cellular tumor antigen p53 (human) (UniProt P04637).
Sequence of UniProt P04637 (P04637 whole entry): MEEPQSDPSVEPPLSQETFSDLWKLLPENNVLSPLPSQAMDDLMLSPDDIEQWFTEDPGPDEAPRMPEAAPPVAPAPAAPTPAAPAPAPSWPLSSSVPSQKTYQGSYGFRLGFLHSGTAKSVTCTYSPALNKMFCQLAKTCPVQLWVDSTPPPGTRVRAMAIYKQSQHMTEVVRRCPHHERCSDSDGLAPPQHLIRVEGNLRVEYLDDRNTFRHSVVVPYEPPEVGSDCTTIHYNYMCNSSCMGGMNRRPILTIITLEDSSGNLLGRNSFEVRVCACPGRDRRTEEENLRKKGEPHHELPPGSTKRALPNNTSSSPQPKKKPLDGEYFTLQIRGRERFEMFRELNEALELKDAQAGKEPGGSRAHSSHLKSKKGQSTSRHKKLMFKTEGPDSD
The target in the next test is Reticulocalbin-2 (human) (UniProt Q14257).
Sequence of UniProt Q14257 (Q14257 23-317 limits assumed): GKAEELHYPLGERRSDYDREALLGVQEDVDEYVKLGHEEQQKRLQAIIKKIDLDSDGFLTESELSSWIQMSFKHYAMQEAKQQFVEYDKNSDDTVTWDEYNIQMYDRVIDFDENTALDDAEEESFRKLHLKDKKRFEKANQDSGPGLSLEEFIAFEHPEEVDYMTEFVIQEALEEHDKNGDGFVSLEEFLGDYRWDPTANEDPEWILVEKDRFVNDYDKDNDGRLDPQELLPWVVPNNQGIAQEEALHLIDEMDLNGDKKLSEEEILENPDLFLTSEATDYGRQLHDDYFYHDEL
The target in test [12] is Signal transducer and activator of transcription 3 (human) (UniProt P40763).

No end group written: not given here.

Sequence of UniProt Q9Y678 (Q9Y678 whole entry): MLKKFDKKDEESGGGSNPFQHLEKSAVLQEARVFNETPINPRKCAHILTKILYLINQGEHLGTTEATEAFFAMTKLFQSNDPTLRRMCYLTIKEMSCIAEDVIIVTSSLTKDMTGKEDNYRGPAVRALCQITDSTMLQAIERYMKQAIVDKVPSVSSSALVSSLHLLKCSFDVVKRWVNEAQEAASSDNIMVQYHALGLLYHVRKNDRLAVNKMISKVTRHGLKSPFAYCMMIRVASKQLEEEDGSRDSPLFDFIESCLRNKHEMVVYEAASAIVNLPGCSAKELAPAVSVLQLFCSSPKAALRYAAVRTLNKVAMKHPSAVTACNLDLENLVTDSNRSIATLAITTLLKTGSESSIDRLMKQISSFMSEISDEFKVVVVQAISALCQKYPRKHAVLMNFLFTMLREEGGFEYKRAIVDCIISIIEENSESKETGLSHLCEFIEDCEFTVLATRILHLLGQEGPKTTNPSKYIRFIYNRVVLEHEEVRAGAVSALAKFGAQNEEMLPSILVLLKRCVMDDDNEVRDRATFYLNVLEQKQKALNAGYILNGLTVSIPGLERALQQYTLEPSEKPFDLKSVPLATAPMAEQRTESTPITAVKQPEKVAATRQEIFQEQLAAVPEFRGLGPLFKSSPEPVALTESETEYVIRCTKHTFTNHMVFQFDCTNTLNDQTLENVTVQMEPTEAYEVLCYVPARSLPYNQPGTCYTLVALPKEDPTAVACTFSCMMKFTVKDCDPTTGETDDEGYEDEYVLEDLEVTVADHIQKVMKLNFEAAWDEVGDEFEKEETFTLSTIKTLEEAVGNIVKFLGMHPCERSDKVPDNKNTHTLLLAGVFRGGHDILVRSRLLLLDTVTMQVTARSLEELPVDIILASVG
Sequence of UniProt P40227 (P40227 2-531 limits assumed, one chain of several): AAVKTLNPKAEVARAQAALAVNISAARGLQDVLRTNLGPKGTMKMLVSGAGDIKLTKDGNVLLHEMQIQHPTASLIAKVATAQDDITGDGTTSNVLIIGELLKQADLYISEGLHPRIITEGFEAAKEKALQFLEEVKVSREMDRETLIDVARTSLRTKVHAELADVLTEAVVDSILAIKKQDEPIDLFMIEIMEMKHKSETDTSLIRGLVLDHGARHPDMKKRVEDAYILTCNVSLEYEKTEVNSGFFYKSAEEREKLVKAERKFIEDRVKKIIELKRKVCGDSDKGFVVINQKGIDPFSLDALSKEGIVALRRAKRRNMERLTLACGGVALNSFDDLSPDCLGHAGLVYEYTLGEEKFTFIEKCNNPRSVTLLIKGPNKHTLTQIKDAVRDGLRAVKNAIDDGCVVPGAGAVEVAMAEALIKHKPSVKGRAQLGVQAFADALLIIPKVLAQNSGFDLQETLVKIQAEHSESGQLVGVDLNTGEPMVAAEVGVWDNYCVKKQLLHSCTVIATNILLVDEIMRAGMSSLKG

On to VTIFVAGVLTASLTIWKKMG (also: biotin tag, site not given here) [biotin-tagged CT20p], for which the No. of unique peptides stood at 1 peptides with Huntingtin (human); 6 peptides in [1]; 2 peptides in [2]; 7 peptides in test [3]; 3 peptides in test [4]; 3 peptides in [5]. Moreover, the No. of unique peptides turned out to be 4 peptides in [6]; 2 peptides in test [7]; 6 peptides in [8]; 2 peptides in [9]; 2 peptides in test [10]; 1 peptides in [11]. For the same molecule, the No. of unique peptides was 10 peptides in the test with Reticulocalbin-2 (human) and 2 peptides in [12].
